Assay results reported in patent US20260258115A1 (MAPP BIOPHARMACEUTICAL, published 2026).

B1: ADI-41664 (antibody, V domains shown)
VH: EVQLVQSGDEVKKPGASVKVSCKASGYPFSTYGISWVRQAPGQGLEWMGWIGVYTGGTNYAQKFQGRVTLTTDTSTSTAYMELRSLRSDDTAVYYCARGTGSYMTATYFDYWGQGTLVTVSS
VL: SYELTQPPSVSVAPGQTARITCGGNNIGSKAVHWYQQKPGQAPVLVVYDDYDRPSGIPERFSGSNSGNTATLTISRVEAGDEADYYCQVWDSSSDYVFGTGTKLTVL
notes: also called Ab 890; Antibody Number 890
B2: ADI-14425 (antibody, V domains shown)
VH: QVQLQESGPGLVKPSETLSLTCTVSGGSVRSGSYYWSWIRQPPGKALEWIGYIYYSGSTNYNPALESRVTISVDTSKNQFSLMLSSVTAADTAVYYCARSAEGLARLYYFDHWGQGTLVTVSS
VL: QSVLIQPASVSGSPGQSITISCTGTSSDVGGYNYVSWYQQHPGKAPKLMIHDVSNRPSGVSNRFSGSKSGNTASLTISGLQAEDEADYYCSTYRSSNTLVVFGGGTKLTVL
notes: also called Ab 91
B3: ADI-14404 (antibody, V domains shown)
VH: EVQLVESGGGLVQPGGSLRLSCAASGFTFSNFEMNWVRQAPGKGLEWVSYISSSGRIIYYADSVKGRFTISRDNARNSLYVQMNSLRVEDTAVYYCARAKAAAGHDLWGQGTLVTVSS
VL: EIVLTQSPSTLSASVGDRVTITCRASQSISPWLAWYQQKPGKAPKLLIYRASSLESGVPSRFSGSGSGTEFTLTISSLQPDDFATYYCQHYNSYLYTFGQGTKVEIK
notes: also called Ab 70
B4: ADI-14406 (antibody, V domains shown)
VH: QVQLVQSGAEVKKPGESLKISCKGSGYKFTNYWIAWVRQMPGKGLEWLGVIYPGASDITYSPSFQGQVTISADKSISTAYLQWSSLKASDTAIYYCARQGSITAMSYWGQGTMVTVSS
VL: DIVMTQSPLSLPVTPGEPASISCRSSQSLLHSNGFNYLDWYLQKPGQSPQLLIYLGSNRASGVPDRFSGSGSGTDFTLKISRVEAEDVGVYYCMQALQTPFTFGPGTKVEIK
notes: also called Ab 72
B5: ADI-14606 (antibody, V domains shown)
VH: QVQLVQSGGGLVQPGGSLRLSCAASGFTVSSNYMGWVRQAPGKGLEWVSVIYTGGSTYYADSVKGRFTISRDNFKNTLYLQMNSLRAEDTALYYCARDLYSSGWFGYWGQGTLVTVSS
VL: DIRLTQSPATLSVSPGERATLSCRASQSVSINLGWFQQKPGQSPRLLIYGTSTRATGIPARFSGSGSGTEFTLTISSLQSEDFAVYYCHQYNNWPYTFGQGTKVEIK
B6: ADI-21040 (antibody, V domains shown)
VH: EVQLLESGPGLVKPSGTPSLTCAVSGVSITNSNNWWTWVRQPPGKGLEWIGEIYSSGSTNYSPSLKSRVTISLDKSKNQFSLKLSSVTAADTAVYYCARVLGYYGSGGGHLHSWGPGTLVTVSS
VL: SYELTQPPSASGTPGQRVTISCSGSSSNIGAGYDVHWYQQLPGTAPKLLISVNSNRPSGVPDRFSGSKSGTSASLAITGLQAEDEANYYCQSYDNSLSGYVVFGGGTKLTVL
B7: ADI-14573 (antibody, V domains shown)
VH: QVQLVQSGAEVKKPGASVKVSCKASGYTFTTYGISWVRQAPGQGLEWMGWISTYKTYTNYAQKFQGRVTMTTDTSTSTAYMELRSLRSDDTAVYYCAKVAGGSGSYGDYWGQGTLVTVSS
VL: QPVLTQPPSVSVAPGKTARITCGGNNIGSKSVHWYLQKPGQAPVLVIYYDSDRPSGIPERFSGSNSGNTATLTISRVEAGDEADFFCQVWDSSSDHWVFGGGTKVTVL
B8: ADI-14417 (antibody, V domains shown)
VH: EVQLVESGGGLVKPGGSLRLSCAASGFSFSSYSMHWVRQAPGKGLEWVSSISGSSTYIYHADSVKGRFTISRDNAERSLHLQMNSLRAEDTAVYYCARDPYSSGWLDSWGQGTLVTVSS
VL: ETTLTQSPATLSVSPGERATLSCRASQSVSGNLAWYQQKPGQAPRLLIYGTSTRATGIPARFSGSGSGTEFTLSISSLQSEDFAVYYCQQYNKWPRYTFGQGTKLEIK
notes: also called Ab 83
B9: ADI-14605 (antibody, V domains shown)
VH: EVQLLESGPALVKPTQTLTLTCTFSGFSLTTSGMCVSWIRQPPGKALEWLARIDWDDDQYFSTSLRTRLSISKDTSKNQVVLTMTNMDPVDTATYYCARSALNIAARGFDIWGQGTTVTVSS
VL: QPGLTQPPSVSVSPGQTARITCSGDVLPKHFSYWYQQKPGQAPVLVIHRDSERPSGIPERFSGSSSGTTVTLTISGVQAEDEADYYCQFSDITNTVFGGGTKLTVL
B10: ADI-14421 (antibody, V domains shown)
VH: QVQLVQSGAEVKKPGESLKISCKGSGYNSSINWIGYWIGWVRQMPGKGLEWMGIINPGDSDTRYSPSFQGQVTISVDKSISTAYLQWGSLKASDTAMYYCARRAYRSGWHFDLWGRGTLVTVSS
VL: EIVMTQSPATLSVSPGERATLTCRASQSVSSNLAWYQQKPGQAPRLLIYGASTRATGIPARFSGSGSGTQFTLTISSLQSEDFAVYYCQHYNNWPPYTFGQGTKVEIK
notes: also called Ab 87
B11: ADI-14598 (antibody, V domains shown)
VH: QVQLVQSGAEVKKPGSSVKVSCKASGGTFSSYAIYWVRQAPGQGLECMGGIIPIFGSANYAQKFQGRVTITADESTSTAYMELSSLRSEDTAVYYCATDSLKTTYYYGSSGYFRDHVWGQGTTVTVSS
VL: ETTLTQSPSSLSASVGDRVTITCRASQGISNYLAWYQQKPGKVPKLLIFAASTLQSGVPSRFSGSGSGTDFTLTISSLQPEDVATYYCQNFNSVLSFTFGPGTKVDIK
B12: ADI-14405 (antibody, V domains shown)
VH: QVQLVQSGTEVKKPGASVKVSCKASGYTFTNYDISWVRQAPGQGLEWMGWISGSTGNTIYAQNLQGRLTMTTDTSTSTAYMELRSLRSDDTAIYYCARDNVGYASGNYFDYWGQGTLVTVSS
VL: SYVLTQPPSVSVAPGKTARIPCGGNNIGSKSVHWYQQRPGQAPVLVIYYDSVRPSGIPERFSGSNSGNTATLTISTVEAGDEADFYCQVWDSSRDHEVFGGGTKLTVL
notes: also called Ab 71
B13: ADI-21056 (antibody, V domains shown)
VH: EVQLLESGGGLVKPGGSLKLSCAASGFTLRSYYMHWVRQAPGRGLEWVSSISASSSYINYVDAVKGRFTVSRDNAKNSLFLQMNSLRAEDTAVYYCAREGGAMTNFGVVIDIWGQGTMVTVSS
VL: SYVLTQPPSVSGAPGQRVTISCTGSSSNIGAGYDVHWYQQLPGTAPKLLIYTNTNRPSGVPDRFSGSKSGTSASLAITGLQSDDEADYYCQSYDSSLSGPVVFGGGTKLTVL
B14: ADI-20997 (antibody, V domains shown)
VH: EVQLVESGGGVVQPGRSLRLSCAASGFPFNSYGMHWVRQAPGKGLEWLAVIYFDESTAYYADSVKGRFTISRDNSKSTLYLQMNSLRAADTAIYYCTTTVMIPYGGVFWGQGTLVTVSS
VL: EIVMTQSPGTLSLSPGDRATLSCRASQSVGSTHFAWYQQKPGQAPRLLIYAASIRATGIPDRFSGGGSGTDFTLTISRLAPEDFAVYYCQQYGSTPITFGQGTRLEIK
B15: ADI-14416 (antibody, V domains shown)
VH: QVQLVQSGAEVKKPGESLKISCKGSGDTFSRNWIGWVRQMPGKGLEWMGIIWPGDSDTRYRQFFQGQQGQVIISVDKSISTAYLQWSSLKASDTATYYCATSPYGLGSYYEHWGQGTLVTVSS
VL: NFMLTQPHSLSDSPGKTVVISCTRSSGSIASNYVQWYQQRPGSAPTTVIYEDNQRPSGVPDRFSGSIDSSSNSASLTISGLKTEDEADYYCQSYDSSNPYVFGTGTKVTVL
notes: also called Ab 82
B16: ADI-14393 (antibody, V domains shown)
VH: QVQLVESGGGLVKPGGSLRLSCAASGFSFTGFYMNWVRQAPGKGLEWVSSISSSSTYKNYADSLQGRFTISRDNARSSLYLQMNSLRAEDTAVYYCARTRTEYTYGYYHDFWGQGTLVTVSS
VL: QPVLTQPPSVSGAPGQRVTISCTGSSSNIGAGYDVHWYQQVPGTAPKLLIYNNNNRPSGVPDRFSGSKSGTSASLAITGLQAEDEADYYCQSYDSRLSGVFGGGTKLTVL
notes: also called Ab 60
B17: ADI-14418 (antibody, V domains shown)
VH: QVQLVQSGAEVKKPGSSVKVSCKASGGTFTNYNINWVRQAPGQGLQWMGRISPTFAIANYAQKFQGRVTITADKSTSTAYMELSSLRSEDTAVYYCARAPHSGYDLALDYWGQGTLVTVSS
VL: DIQMTQSPSTLSASVGDRVTITCRASQSISSWLAWYQQKPGKAPKLLIYEASSLQSGVPSRFSGSGSGTEFTLTITSLQPDDFATYYCQQYNVYPWTFGQGTKVDIK
notes: also called Ab 84
B18: ADI-21053 (antibody, V domains shown)
VH: QVQLQESGPGLVKPSQTLSLTCTVSGVSISNSSGGYYWSWIRQHPGKGLEWIGYIYYSGSTYYNPSSGSTYYNPSLKSRVTVSVDTSKNQFSLKLTSVTAADTAVYYCARDIRGPHKHSLYNWFHPWGQGTLVTVSS
VL: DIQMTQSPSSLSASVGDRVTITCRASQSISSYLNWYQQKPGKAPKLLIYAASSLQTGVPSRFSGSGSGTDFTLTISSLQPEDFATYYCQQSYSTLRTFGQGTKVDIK
B19: ADI-14589 (antibody, V domains shown)
VH: QITLKESGPVLVKPSETLTLTCTVSGFSLSNAKMGVSWIRQPPGKALEWLAHIFSNDEKSYNTSLKNRLTISKDTSKSQVVLTMTNMDTVDTATYYCARINYYDSSGYYLANFDYWGQGTLVTVSS
VL: NIRLTQSPSSLSASVGDRVTITCRASQRIASYLNWYQQKPGHAPKLLIHAASSLQSGVPSRFSGSGSGTDFTLTINSLLPEDFATYYCQQSYSSPPHSSPPLTFGGGTKVEIK

target: RSV postfusion F (postF), F ΔFP (Respiratory syncytial virus, UniProt P03420 26-513); assay: BLI, IgG on anti-human IgG sensor, 100 nM antigen

Binder	Kd
B1	0.825 nM

target: RSV prefusion F (preF), DS-Cav1 (Respiratory syncytial virus, UniProt P03420 26-513); assay: BLI, IgG on anti-human IgG sensor, 100 nM antigen

Binder	Kd
B1	2.94 nM

target: RSV F on RSV-A2 virus (Respiratory syncytial virus, RSV-A2, UniProt P03420 26-574); assay: cell-based or functional assay

Binder	Neutralization IC50 (RSV subtype A)
B1	> 25 µg/mL

target: T1, RSV postfusion F (postF), subtype B (respiratory syncytial virus, subtype B); assay: BLI, IgG
T1 construct: also called F ΔFP; Postfusion subtype B

Binder	Kd
B2	9.34 nM
B3	0.498 nM
B4	0.473 nM
B5	0.659 nM
B6	1.03 nM
B7	3.55 nM
B8	3.99 nM
B9	0.399 nM
B10	0.74 nM
B11	4.81 nM
B12	38 nM
B13	63.4 nM
B14	0.609 nM
B15	0.106 nM
B16	11.7 nM
B17	0.258 nM
B18	118 nM
B19	15.4 nM

target: RSV prefusion F (preF), subtype B (respiratory syncytial virus, subtype B); assay: BLI, IgG

Binder	Kd
B2	20.3 nM
B4	0.906 nM
B7	21 nM
B9	2.72 nM
B10	2.82 nM
B11	7.07 nM
B12	0.227 nM
B13	0.223 nM
B14	3.09 nM
B15	0.369 nM
B16	0.474 nM
B17	1.58 nM
B19	28.2 nM

target: RSV prefusion F (preF), subtype A (respiratory syncytial virus, subtype A, UniProt P03420 26-513); assay: BLI, IgG

Binder	Kd	binding result
B2	48.1 nM	
B3		no binding
B4	6.85 nM	
B5		no binding
B6		no binding
B7		no binding
B8		no binding
B10		no binding
B12	0.142 nM	
B15	2.39 nM	
B16	0.311 nM	
B17	1.25 nM	
B18	71 nM	
B19	6.48 nM	

target: T2, RSV postfusion F (postF), subtype A (respiratory syncytial virus, subtype A, UniProt P03420 26-513); assay: BLI, IgG
T2 construct: also called F ΔFP; Postfusion subtype A

Binder	Kd	binding result
B2	0.742 nM	
B3	0.627 nM	
B4	0.339 nM	
B5	1.28 nM	
B6	0.777 nM	
B7	0.373 nM	
B8	1.63 nM	
B10	1.07 nM	
B11	0.452 nM	
B12	11.7 nM	
B15	0.182 nM	
B16		no binding
B17	0.441 nM	
B18	6.37 nM	
B19	0.596 nM	
